Values quoted from earlier work in article PMC4136965 (Journal of nuclear medicine : official publication, Society …, 2009).
Where two headings read alike, the source gives them in different places. Non-standard residues stand in square brackets, D forms with d. No end group written: not given here.

Test system: B16F10 xenografted melanoma
Details: mouse, in vivo

**Q.** Which results are given for “^18F-FB-Ac-Nle-Asp-His-D-Phe-Arg-Trp-Gly-Lys-NH2 ([dF]RWGK-NH2; not fully specified (N-terminus); also: 18F-FB label, position not given here) [^18F-FB-NAPamide]”?
**A.** Tumor uptake (1 h): 1.19 ± 0.11 %ID/g; Tumor uptake (4 h): 0.25 ± 0.05 %ID/g
